Data on 1 molecule can be found in patent US20100021474A1 (Genentech, published 2010).

Experiment [1] concerns the target T1, soluble form of HEPSIN comprising the entire extracellular domain (human HEPSIN Arg45-Leu417, His-tagged) (human, UniProt P05981 45-417).
T1 construct: range 45-417; Under reducing SDS-PAGE it runs as a 20 kDa A-chain and a 30 kDa B-chain; also called soluble HEPSIN; recombinant soluble HEPSIN; not shown: His tag
Put plainly: Ki app, enzyme inhibition assay with chromogenic substrate S2366, fit to the tight binding inhibition equation. The protocol: (§1) A soluble form of the bi-Kunitz inhibitor HAI-2 was used as a stop reagent for the pro-uPA activation assay. […] HAI-2 was incubated with 0.5 nM HEPSIN or 10 nM uPA for 30 min in Hepes buffer (20 mM Hepes, pH 7.5, 150 mM NaCl, 5 mM CaCl₂, 0.01% Triton X-100) at room temperature. The chromogenic substrates S2366 (for HEPSIN) or S2444 (for uPA) were added at a concentration corresponding to their respective Kₘ values, which were determined in separate experiments. After substrate addition, the increase in absorbance at 405 nm was measured on a kinetic microplate reader (Molecular Devices, Sunnyvale, Calif.). The Kᵢ^app values were determined by fitting the data to the equation for tight binding inhibition (22,23).

Experiment [2] concerns the target T2, uPA (high molecular weight form) (UniProt P00749 21-431, limits assumed).
T2 construct: Bought reagent
Put plainly: Ki app, enzyme inhibition assay with chromogenic substrate S2444, fit to the tight binding inhibition equation. The protocol:
as §1

T1 sequence (P05981 45-417 limits assumed): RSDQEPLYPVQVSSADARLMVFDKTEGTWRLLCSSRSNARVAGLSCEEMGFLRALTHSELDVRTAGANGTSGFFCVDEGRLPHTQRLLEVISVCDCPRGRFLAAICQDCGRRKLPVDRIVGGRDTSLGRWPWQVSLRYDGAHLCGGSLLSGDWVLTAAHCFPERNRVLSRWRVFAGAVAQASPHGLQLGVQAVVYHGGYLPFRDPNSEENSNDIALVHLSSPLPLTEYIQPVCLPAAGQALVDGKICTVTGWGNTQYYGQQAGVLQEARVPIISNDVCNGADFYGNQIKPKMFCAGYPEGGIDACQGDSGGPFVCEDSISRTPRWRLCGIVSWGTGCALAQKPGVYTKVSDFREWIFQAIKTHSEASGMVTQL

B1: soluble form of hepatocyte growth factor activator inhibitor-2 (HAI-2) (other, UniProt O43291 28-197, looked up)
chain: ADRERSIHDFCLVSKVVGRCRASMPRWWYNVTDGSCQLFVYGGCDGNSNNYLTKEECLKKCATVTENATGDLATSRNAADSSVPSAPRRQDSEDHSSDMFNYEEYCTANAVTGPCRASFPRWYFDVERNSCNNFIYGGCRGNKNSYRSEEACMLRCFRQQENPPLPLGSK
notes: Called a soluble form
Take B1: the Ki in experiment [1] was 0.26 nM; in experiment [2] it was > 1000 nM.
